# Assay results from patent US20090203610A1, “METHODS OF TREATING OBESITY OR DIABETES USING NT-4/5” (RINAT NEUROSCIENCE CORPORATION, priority 2004, published 2009).
# Experiments:
# p75NTR = molecular target: T1, p75NTR (Homo sapiens, UniProt P08138); details: low affinity receptor (LNGFR, p75NTR); cited from earlier work
# T1 sequence (P08138 29-427): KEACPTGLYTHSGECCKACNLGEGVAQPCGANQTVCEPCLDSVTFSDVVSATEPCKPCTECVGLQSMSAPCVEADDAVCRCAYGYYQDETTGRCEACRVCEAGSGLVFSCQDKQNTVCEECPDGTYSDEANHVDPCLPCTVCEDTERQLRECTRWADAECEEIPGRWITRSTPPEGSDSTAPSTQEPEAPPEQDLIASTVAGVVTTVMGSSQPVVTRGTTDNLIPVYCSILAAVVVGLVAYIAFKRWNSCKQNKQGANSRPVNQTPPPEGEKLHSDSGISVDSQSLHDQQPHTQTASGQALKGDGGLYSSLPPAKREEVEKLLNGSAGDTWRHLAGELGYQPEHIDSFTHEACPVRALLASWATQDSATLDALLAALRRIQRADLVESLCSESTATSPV
# human TrkC = molecular target: T2, human TrkC (Homo sapiens, UniProt Q16288); test: Receptor tyrosine phosphorylation in trkC expressing cell line; assay type: cell-based
# T2 construct: expressed in transfected cells
# T2 sequence (Q16288 32-839): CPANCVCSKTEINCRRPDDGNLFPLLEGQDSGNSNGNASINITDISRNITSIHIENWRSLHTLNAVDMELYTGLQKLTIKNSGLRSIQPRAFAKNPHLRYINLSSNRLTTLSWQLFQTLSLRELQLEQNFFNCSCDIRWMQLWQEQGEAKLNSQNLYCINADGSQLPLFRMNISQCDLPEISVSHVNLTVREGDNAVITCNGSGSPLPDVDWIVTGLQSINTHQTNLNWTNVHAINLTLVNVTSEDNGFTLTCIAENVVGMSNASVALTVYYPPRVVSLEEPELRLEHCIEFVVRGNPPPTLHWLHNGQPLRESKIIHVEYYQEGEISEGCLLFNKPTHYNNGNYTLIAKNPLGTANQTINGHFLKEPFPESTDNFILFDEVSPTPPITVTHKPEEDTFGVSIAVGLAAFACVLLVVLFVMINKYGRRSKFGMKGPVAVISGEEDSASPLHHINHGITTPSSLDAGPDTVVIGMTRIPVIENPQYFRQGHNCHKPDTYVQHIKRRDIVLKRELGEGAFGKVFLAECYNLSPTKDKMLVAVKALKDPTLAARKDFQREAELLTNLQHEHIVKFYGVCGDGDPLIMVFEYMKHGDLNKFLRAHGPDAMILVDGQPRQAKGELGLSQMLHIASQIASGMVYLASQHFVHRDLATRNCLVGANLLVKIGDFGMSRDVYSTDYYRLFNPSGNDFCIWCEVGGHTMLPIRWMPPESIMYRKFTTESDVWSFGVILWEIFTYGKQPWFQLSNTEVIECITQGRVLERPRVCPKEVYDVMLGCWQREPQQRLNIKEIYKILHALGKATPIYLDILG
# From the text: (§1) Assays of TrkB specific activation by pegylated NT-4/5: Stable cell lines expressing human TrkA, TrkB or TrkC were used to determine the functional activity, i.e. receptor phosphorylation, of NT-4/5 and pegylated NT-4/5 as previously described (Sadick et al. Experimental Cell Research 234: 354-361, 1997).
# (§2) Assays of TrkB specific activation by pegylated NT-4/5: Stable cell lines expressing human TrkA, TrkB or TrkC were used to determine the functional activity, i.e. receptor phosphorylation, of NT-4/5 and different forms of pegylated NT-4/5 as previously described (Sadick et al. Experimental Cell Research 234: 354-361, 1997).
# DIO mice [1] = test: NT-4/5 versus BDNF on body weight and food intake of DIO mice (Example 10); assay type: in vivo; details: 2 mg/kg i.v.
# From the text: Test animals: Mice with diet induced obesity (DIO) were used in this study. 22 male C57BL/6J mice were weaned at 4 weeks of age. Immediately after weaning they were put on 58% high fat diet (D12331i, Research Diet) through out the study. The DIO mice at 13 weeks of age weighing in the range of 28-40 g were used in this study.
# Administration of NT-4/5 and BDNF: NT-4/5 was produced was produced as described in U.S. Pat. No. 6,184,360. The recombinant human BDNF was obtained from PeproTech Inc. (Rocky Hill, N.J.).
# The mice were divided into 3 groups of equivalent body weight distribution (7-8 mice per group). Each group received 2 weekly intravenous doses of either vehicle, 2 mg/kg of NT-4/5 or 2 mg/kg of BDNF, respectively. Body weight and food intake were taken the day before treatment started (day 0) and followed subsequently on a daily basis.
# human TrkB = molecular target: T3, human TrkB (Homo sapiens, UniProt Q16620); test: Receptor tyrosine phosphorylation (KIRA) in TrkB expressing cell line; assay type: cell-based
# T3 construct: expressed in transfected cells
# T3 sequence (Q16620 32-822): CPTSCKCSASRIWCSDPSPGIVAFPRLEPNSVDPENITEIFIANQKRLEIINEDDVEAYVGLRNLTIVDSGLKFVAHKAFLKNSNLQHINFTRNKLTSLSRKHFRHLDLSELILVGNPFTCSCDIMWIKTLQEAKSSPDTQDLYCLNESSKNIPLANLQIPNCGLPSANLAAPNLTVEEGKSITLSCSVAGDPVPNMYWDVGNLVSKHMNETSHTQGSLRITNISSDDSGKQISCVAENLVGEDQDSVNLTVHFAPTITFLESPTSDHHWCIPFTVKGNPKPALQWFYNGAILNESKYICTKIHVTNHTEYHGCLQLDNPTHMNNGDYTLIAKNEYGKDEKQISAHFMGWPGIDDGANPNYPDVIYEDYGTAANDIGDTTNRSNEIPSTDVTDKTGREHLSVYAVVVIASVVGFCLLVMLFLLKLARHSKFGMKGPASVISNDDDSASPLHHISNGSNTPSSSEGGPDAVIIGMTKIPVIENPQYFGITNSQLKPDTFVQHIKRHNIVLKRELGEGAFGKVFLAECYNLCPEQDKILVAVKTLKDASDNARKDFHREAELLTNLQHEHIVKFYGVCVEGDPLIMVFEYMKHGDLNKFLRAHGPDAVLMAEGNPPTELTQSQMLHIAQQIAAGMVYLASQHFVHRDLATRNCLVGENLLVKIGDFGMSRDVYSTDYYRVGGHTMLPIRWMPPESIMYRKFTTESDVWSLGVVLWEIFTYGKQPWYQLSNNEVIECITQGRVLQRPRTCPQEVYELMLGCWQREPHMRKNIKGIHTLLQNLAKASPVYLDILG
# From the text: Method of making pegylated NT-4/5 (S50C): The native form of NT-4/5 used in this study was produced according to the method described in U.S. Pat. No. 6,184,360. A site-directed pegylated NT-4/5 was also produced. The structure of NT-4/5 in complex with domain 5 of TrkB was examined to find amino acid side chains that would be surface available and unlikely to interfere with natural disulfide bonds and also unlikely to interfere in either the interactions between the monomer subunits of NT-4/5 or the TrkB domain 5 to create a PEG attaching site. […] […] Mutant proteins were expressed in E. coli, solubilized, extracted, purified and refolded as the native NT-4/5. To pegylate the refolded NT4-S50C, NT4-Q105C, and NT-4-E67C, first a mild reduction with 0.1 mM DTT (dithiothreitol) was performed. Excess DTT was removed by dialysis against 50 mM sodium acetate at pH 6, then a 5 molar excess of mPEG-maleimide (M. W. of 10,000 Da, SunBio, Inc., South Korea) was incubated with the protein at 37° C. for several days with gentle agitation. Pegylated protein, non-pegylated protein and unreacted PEG were separated via ion exchange or size exclusion chromatography.
# as §1, §2
# human TrkA = molecular target: T4, human TrkA (Homo sapiens, UniProt P04629); test: Receptor tyrosine phosphorylation in trkA expressing cell line; assay type: cell-based
# T4 construct: expressed in transfected cells
# T4 sequence (P04629 33-796): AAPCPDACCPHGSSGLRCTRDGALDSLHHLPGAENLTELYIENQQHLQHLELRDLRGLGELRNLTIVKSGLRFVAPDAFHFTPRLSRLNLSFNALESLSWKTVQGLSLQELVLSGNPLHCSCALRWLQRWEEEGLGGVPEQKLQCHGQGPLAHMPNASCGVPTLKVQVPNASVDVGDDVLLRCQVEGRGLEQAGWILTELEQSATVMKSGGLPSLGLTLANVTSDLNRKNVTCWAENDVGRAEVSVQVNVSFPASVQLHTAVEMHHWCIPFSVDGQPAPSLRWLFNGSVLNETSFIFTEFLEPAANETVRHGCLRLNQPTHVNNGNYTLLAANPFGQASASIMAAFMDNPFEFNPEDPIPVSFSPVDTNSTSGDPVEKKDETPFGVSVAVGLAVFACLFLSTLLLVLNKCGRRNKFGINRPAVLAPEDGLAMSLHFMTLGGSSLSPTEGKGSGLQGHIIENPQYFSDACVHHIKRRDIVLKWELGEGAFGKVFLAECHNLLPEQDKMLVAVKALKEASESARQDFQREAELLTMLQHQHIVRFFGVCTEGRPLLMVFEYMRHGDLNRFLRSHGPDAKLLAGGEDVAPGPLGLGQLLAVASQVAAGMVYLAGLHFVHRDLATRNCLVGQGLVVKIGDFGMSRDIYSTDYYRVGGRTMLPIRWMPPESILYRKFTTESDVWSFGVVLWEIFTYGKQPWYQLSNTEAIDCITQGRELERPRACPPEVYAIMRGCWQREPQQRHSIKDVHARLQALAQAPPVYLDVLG
# From the text: as §1, §2
# [2] = test system: NONcNZO-10 polygenic obese mice; test: Pegylated NT-4/5 cysteine mutant on body weight, food intake, glucose, triglyceride in NONcNZO-10 mice (Example 6); assay type: in vivo; details: single subcutaneous injection of 1 mg/kg
# Protocol: Test animals: 30 male NONcNZO-10 polygenic obese mice at 10 weeks of age weighing in the range of 27-32 g were used in this study.
# Administration of NT-4/5 and pegylated NT-4/5: The mice were divided into 4 groups of equivalent body weight distribution (7-8 mice per group). Each group received on the first day (day 1) of the study one and the only dose of either vehicle alone, 1 mg/kg of NT-4/5 or 1 mg/kg of PEG-NT4-S50C, respectively. A final group received a daily subcutaneous dose of 1 mg/kg of NT-4/5 from day 1 to day 5, then from day 7 to day 9. On day 9 after the treatment started, blood samples were collected to determine serum glucose and triglyceride levels. Body weight and food intake were monitored 5 days a week through out the entire study.
# DIO mice [3] = test: Weekly intravenous pegylated G1S NT-4/5 versus WT NT-4/5 on body weight and food intake in DIO mice (Example 8); assay type: in vivo
# From the text: Test animals: Mice with diet induced obesity (DIO) were used in this study. 29 male C57BL/6J mice were weaned at 4 weeks of age. Immediately after weaning, they were put on 58% high fat diet (D12331i, Research Diet) through out the study. The DIO mice at 13 weeks of age weighing in the range of 28-40 g were used in this study.
# Administration of NT-4/5 and pegylated NT-4/5: NT-4/5 was obtained from Genentech Inc. or produced as described in U.S. Pat. No. 6,184,360. Pegylated NT-4/5 was produced as follows: A mutation was introduced by changing the glycine 1 position of mature human NT-4/5 sequence to serine, resulting in a mutant form of NT-4/5 (NT4-G1S). NT4-G1S protein was expressed in E. coli, solubilized, extracted, purified and refolded as described above. Refolded NT4-G1S was dialyzed into 50 mM sodium phosphate buffer at pH 6.8 and treated with 1.5 molar excess sodium meta-periodate for 10 minutes to oxidize the N-terminal serine (or threonine) residue to an aldehyde. Remaining periodate was removed by dialysis against 30 mM sodium acetate at pH 4.5. The exact concentration of NT4-G1S was determined and a 2 to 4 fold molar excess of 20K-m-PEG-HZ (methoxy polyethylene glycol hydrazide) was added. The reaction was incubated at 37° C. for several days with gentle agitation. Unconjugated PEG, pegylated NT4-G1S and non-pegylated NT4-G1S were separated via ion exchange or size exclusion chromatography.
# The mice were divided into 3 groups of equivalent body weight and baseline blood glucose distribution (7-8 mice per group). Each group received four weekly intravenous doses (on day 1, 8, 15 and 22) of either vehicle, 2 mg/kg of NT-4/5 or 2 mg/kg of pegylated G1S NT-4/5 respectively. Body weight and food intake were monitored 5 days per week through out the entire study.
molecule,measurement,setting,value
"NGF: nerve growth factor, control [reference compound]",Kd,p75NTR,2 nM
"NT-3: neurotrophin-3, control activating trkC expressing cells [reference compound]",receptor tyrosine phosphorylation of trkC-expressing cell line,human TrkC,activated trkC expressing cells
same,Kd,p75NTR,2 nM
"BDNF: recombinant human brain-derived neurotrophic factor from PeproTech Inc. (protein, UniProt P23560 19-247, looked up) Neurotrophic factor BDNF …: APMKEANIRGQGGLAYPGVRTHGTLESVNGPKAGSRGLTSLADTFEHVIEELLDEDQKVRPNEENNKDADLYTSRVMLSSQVPLEPPLLFLLEEYKNYLDAANMSMRVRRHSDPARRGELSVCDSISEWVTAADKKTAVDMSGGTVTVLEKVPVSKGQLKQYFYETKCNPMGYTKEGCRGIDKRHWNSQCRTTQSYVRALTMDSKKRIGWRFIRIDTSCVCTLTIKRGR",body weight on day 2,DIO mice [1],did not significantly reduce body weigh
same,food intake on day 2,DIO mice [1],did not significantly reduce food intake
same,Kd,p75NTR,2 nM
"PEG-NT4-S50C: human NT-4/5 with serine 50 changed to cysteine, pegylated with mPEG-maleimide (10,000 Da) (conjugate) GVSETAPASRRGELAVCDAVSGWVTDRRTAVDLRGREVEVLGEVPAAGGCPLRQYFFETRCKADNAEEGGPGAGGGGCRGVDRRHWVSECKAKQSYVRALTADAQGRVGWRWIRIDTACVCTLLSRTGRA",receptor tyrosine phosphorylation of TrkB-expressing cell line,human TrkB,increased receptor tyrosine phosphorylation
same,receptor tyrosine phosphorylation of trkA-expressing cell line,human TrkA,did not increase receptor tyrosine phosphorylation
same,receptor tyrosine phosphorylation of trkC-expressing cell line,human TrkC,did not increase receptor tyrosine phosphorylation
same,body weight,[2],significantly reduced
same,food intake,[2],significantly reduced
same,blood glucose level,[2]; day 9,did not significantly reduce
same,triglyceride level,[2]; day 9,did not significantly reduce
"Pegylated NT-4/5(E67C): NT-4/5 with glutamic acid 67 changed to cysteine, pegylated with mPEG-maleimide (10,000 Da) (conjugate) GVSETAPASRRGELAVCDAVSGWVTDRRTAVDLRGREVEVLGEVPAAGGSPLRQYFFETRCKADNACEGGPGAGGGGCRGVDRRHWVSECKAKQSYVRALTADAQGRVGWRWIRIDTACVCTLLSRTGRA",receptor tyrosine phosphorylation of TrkB-expressing cell line,human TrkB,active in activating TrkB receptor
"pegylated G1S NT-4/5: NT4-G1S (glycine 1 to serine) pegylated with 20K-m-PEG-HZ; 1PEG or 2PEG form not stated (conjugate, UniProt P34130 81-210, looked up, variant G1S, 20K-m-PEG-HZ) Neurotrophin-4: SVSETAPASRRGELAVCDAVSGWVTDRRTAVDLRGREVEVLGEVPAAGGSPLRQYFFETRCKADNAEEGGPGAGGGGCRGVDRRHWVSECKAKQSYVRALTADAQGRVGWRWIRIDTACVCTLLSRTGRA",body weight after the first single dose,DIO mice [3]; 2 mg/kg i.v.,more effective in reducing body weight
same,food intake after the first single dose,DIO mice [3]; 2 mg/kg i.v.,more effective in reducing food intake than WT NT-4/5
same,"body weight, pairwise difference with the vehicle control group","DIO mice [3]; 2 mg/kg i.v. on day 1, 8, 15, 22, Bonferroni posttests",significant pairwise differences
same,time to body weight recovery after each weekly dosing,DIO mice [3]; 2 mg/kg i.v. weekly,3 to 4 days
